Laboratory results from article doi:10.1101/583088.

Molecular target: 3-methylaspartate ammonia lyase from Citrobacter amalonaticus (Citrobacter amalonaticus) (UniProt O66145)
Assay: SEC

stoichiometry N: 2
Substance: 3-methylaspartate ammonia lyase from Citrobacter amalonaticus (from UniProt O66145 1-413) (enzyme)
